In US6033845:

Assays:
[1] = target: maltose binding protein (Escherichia coli (strain K12)) [MBP: P0AEX9]
[2] = target: 7B-maltose binding protein fusion protein (Feline Infectious Peritonitis Virus (Applicant's field isolate)) [MBP: P0AEX9]; conditions: scale: colonies, mean less control, at 20 µg/ml 7B

white blood cells from a cat known to have clinical FIP (cat #88) (cells without a defined receptor)
No. of Colonies (T-cell colony stimulation, two days) (colonies, mean less control) [1]: -1 | No. of Colonies (T-cell colony stimulation, two days) [2]: 31
